The results in this text go back to patent US20260028400A1.

In the test the target is ROR1 expressed on cell surface (Jeko-1 cell line, AMB-LC-0003T and AMB-LC-0002T patient-derived lung cancer cells) (human) (UniProt Q01973). Briefly: cell-based or functional assay.
ROR1 expressed on cell surface (Jeko-1 cell line, AMB-LC-0003T and AMB-LC-0002T patient-derived lung cancer cells) (human), sequence (Q01973 30-937): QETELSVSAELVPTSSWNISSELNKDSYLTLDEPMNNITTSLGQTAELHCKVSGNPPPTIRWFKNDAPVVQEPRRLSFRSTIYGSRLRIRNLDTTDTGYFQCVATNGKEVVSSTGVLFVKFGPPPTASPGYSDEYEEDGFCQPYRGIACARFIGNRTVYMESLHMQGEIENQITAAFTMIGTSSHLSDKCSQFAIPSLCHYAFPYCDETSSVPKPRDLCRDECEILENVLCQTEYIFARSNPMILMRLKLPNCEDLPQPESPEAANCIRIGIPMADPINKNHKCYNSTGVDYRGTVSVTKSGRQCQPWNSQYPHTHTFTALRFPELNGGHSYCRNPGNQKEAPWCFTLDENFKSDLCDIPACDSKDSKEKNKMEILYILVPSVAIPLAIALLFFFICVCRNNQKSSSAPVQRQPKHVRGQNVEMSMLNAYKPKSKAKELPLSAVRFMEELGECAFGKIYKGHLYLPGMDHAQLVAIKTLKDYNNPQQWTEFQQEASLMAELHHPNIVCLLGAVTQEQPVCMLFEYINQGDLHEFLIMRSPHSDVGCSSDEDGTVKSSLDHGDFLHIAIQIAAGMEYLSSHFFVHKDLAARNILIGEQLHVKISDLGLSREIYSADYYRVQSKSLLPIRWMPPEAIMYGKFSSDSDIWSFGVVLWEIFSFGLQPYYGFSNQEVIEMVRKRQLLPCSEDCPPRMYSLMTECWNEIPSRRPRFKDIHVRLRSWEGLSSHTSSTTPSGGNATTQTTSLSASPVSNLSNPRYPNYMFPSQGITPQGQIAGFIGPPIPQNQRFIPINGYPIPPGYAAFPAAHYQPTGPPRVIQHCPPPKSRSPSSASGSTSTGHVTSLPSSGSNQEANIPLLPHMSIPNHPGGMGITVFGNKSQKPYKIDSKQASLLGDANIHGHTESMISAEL

As for UC961-vc-PAB-MMAE (antibody), the Fold Change of IC50, AMB-LC-0002T/AMB-LC-0003T was 11.1 fold; the IC50 (nM), spheroid volume, AMB-LC-0002T (low ROR1 expression) is 282 nM; the IC50 (nM), spheroid volume, AMB-LC-0003T (high ROR1 expression) turned out to be 25.4 nM.
